Measured values reported in article PMC9753469, “Structure and functional mapping of the KRAB‐KAP1 repressor complex” (The EMBO Journal, 2022).

Target: T1, KAP1 RBCC (wild type), SPR analyte (human (by the printed UniProt entry), UniProt Q13263 50-413)
T1 construct: KAP1 (TRIM28) RBCC motif; probably as in Stoll et al, 2019; also called WT KAP1 RBCC; wild-type KAP1; source: E. coli BL21(DE3)
Assay: SPR; Biacore T200, CM5 chip; MBP-KRAB immobilised (about 300 RU ZNF93 WT, 600 RU E35R); KAP1 RBCC flowed, 1:2 dilution series from 40 μM; 20 mM HEPES pH 8.0, 0.5 M NaCl, 0.5 mM TCEP, 20°C; biphasic kinetic model
Conditions: both partners purified

T1 sequence (Q13263 50-413): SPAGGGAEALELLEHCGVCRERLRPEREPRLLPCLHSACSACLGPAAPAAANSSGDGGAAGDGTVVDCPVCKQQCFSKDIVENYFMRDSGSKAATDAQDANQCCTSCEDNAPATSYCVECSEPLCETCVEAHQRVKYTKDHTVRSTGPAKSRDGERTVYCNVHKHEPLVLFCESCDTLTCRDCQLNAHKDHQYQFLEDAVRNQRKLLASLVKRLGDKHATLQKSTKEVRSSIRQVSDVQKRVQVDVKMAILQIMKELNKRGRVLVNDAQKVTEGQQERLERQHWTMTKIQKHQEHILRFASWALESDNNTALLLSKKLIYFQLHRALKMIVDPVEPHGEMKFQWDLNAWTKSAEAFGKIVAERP

B1: MBP-KRAB (ZNF93 KRAB, wild type) (domain or fragment)
chain: not shown
notes: ZNF93, human, residues 2-71 (KRAB domain); The purification of MBP-KRAB alone is not described; also called ZNF93 WT; source: E. coli BL21(DE3); not shown: MBP, N-terminal, kept
Kd: 7.5 nM

B2: MBP-KRAB (ZNF93 KRAB E35R) (domain or fragment)
chain: not shown
notes: ZNF93, human, residues 2-71 (KRAB domain), E35R; also called ZNF93 E35R; source: E. coli BL21(DE3); not shown: MBP, N-terminal, kept
Kd: 198 nM
